Measured values reported in patent US20190328900A1 (GlaxoSmithKline, published 2019).
Where “and” joins values, the source holds several entries; their conditions need not be identical. Equal entries are not always repeated.

B1: VRC01-SA antibody-drug conjugate (antibody, human IgG1, V domains shown)
VH: QVQLVQSGGQMKKPGESMRISCRASGYEFIDCTLNWIRLAPGKRPEWMGWLKPRGGAVNYARPLQGRVTMTRDVYSDTAFLELRSLTVDDTAVYFCTRGKNCDYNWDFEHWGRGTPVIVSS
VL: EIVLTQSPGTLSLSPGETAIISCRTSQYGSLAWYQQRPGQAPRLVIYSGSTRAAGIPDRFSGSRWGPDYNLTISNLESGDFGVYYCQQYEFFGQGTKVQVDI
modifications: payload-linker SA conjugated to lysines; sites and chain not stated; payload-linker SA (short linker payload A, succinimidyl ester) conjugated to lysines; sites and chain not stated; MS DAR 3.0
B2: VRC01-LA antibody-drug conjugate (antibody, human IgG1, V domains shown)
VH: B1 VH
VL: B1 VL
modifications: payload-linker LA conjugated to lysines; sites and chain not stated; payload-linker LA (long linker payload A, succinimidyl ester) conjugated to lysines; sites and chain not stated; MS DAR 3.4
B3: VRC01-LB antibody-drug conjugate (antibody, human IgG1, V domains shown)
VH: B1 VH
VL: B1 VL
modifications: payload-linker LB conjugated to lysines; sites and chain not stated; payload-linker LB (long linker payload B, succinimidyl ester) conjugated to lysines; sites and chain not stated; MS DAR 3.8
B4: VRC01-SB antibody-drug conjugate (antibody, human IgG1, V domains shown)
VH: B1 VH
VL: B1 VL
modifications: payload-linker SB conjugated to lysines; sites and chain not stated; payload-linker SB (short linker payload B, succinimidyl ester) conjugated to lysines; sites and chain not stated; MS DAR 3.9
B5: VRC01 broadly neutralizing antibody (antibody, human IgG1, V domains shown)
VH: B1 VH
VL: B1 VL
B6: VRC01-LA-LB dual-payload antibody-drug conjugate (antibody, human IgG1, V domains shown)
VH: B1 VH
VL: B1 VL
modifications: payload-linkers LA and LB conjugated to lysines; sites and chain not stated; payload-linkers LA and LB conjugated to lysines; sites and chain not stated; MS DAR 1.6 (LA) and 1.2 (LB)
B7: VRC01-LA-SB dual-payload antibody-drug conjugate (antibody, human IgG1, V domains shown)
VH: B1 VH
VL: B1 VL
modifications: payload-linkers LA and SB conjugated to lysines; sites and chain not stated; payload-linkers LA and SB conjugated to lysines; sites and chain not stated; MS DAR 1.6 (LA) and 1.3

target: T1, HIV gp160 envelope glycoprotein on pseudotyped virus (clone not named) (HIV); experiment: cell-based or functional assay

Binder	IC50 (N = 1), pseudotyped virus (PSV) infection, luciferase	IC50 (N = 2), pseudotyped virus (PSV) infection, luciferase
B1	~2.7 nM and 0.418 µg/mL	0.226 µg/mL and ~1.5 nM
B2	0.0753 µg/mL and ~0.5 nM	0.0413 µg/mL and ~0.27 nM
B3	0.526 µg/mL and ~3.4 nM	~0.0019 µM
B4	0.617 µg/mL and ~4 nM	0.772 mg/L
B5	~0.667 µM	~0.667 µM

target: T1, HIV gp160 envelope glycoprotein on …; experiment: cell-based or functional assay; remark: another data set of the same source

Binder	IC50 (N = 1), pseudotyped virus (PSV) infection, luciferase	IC50 (N = 2), pseudotyped virus (PSV) infection, luciferase
B6	0.154 mg/L	0.107 µg/mL and ~0.7 nM
B7	0.104 µg/mL and ~0.7 nM	0.106 µg/mL and ~0.7 nM
